Source: US20220204643A1 (published 2022)
Blank lines part the entries; values can stand above or below the binder they belong to.

Key:
Assay in all cases: protein array
[1] = biological target: T1, Dpy-30 histone methyltransferase complex regulatory subunit (human, UniProt Q9C005 1-99)
T1 construct: on protein array

[2] = biological target: T2, rhophilin associated tail protein 1 like, transcript variant 2 (human, UniProt Q96C74 1-230)
T2 construct: on protein array; also called ROPN1L
T2 sequence: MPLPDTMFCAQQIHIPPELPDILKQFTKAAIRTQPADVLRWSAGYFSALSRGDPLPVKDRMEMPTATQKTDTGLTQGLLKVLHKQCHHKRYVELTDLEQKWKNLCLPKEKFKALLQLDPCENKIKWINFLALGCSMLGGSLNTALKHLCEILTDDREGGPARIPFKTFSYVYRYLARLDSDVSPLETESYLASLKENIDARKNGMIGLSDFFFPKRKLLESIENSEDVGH

PAGE family member 2 = biological target: T3, PAGE family member 2 (human, UniProt Q7Z2X7 1-111)
T3 construct: on protein array; also called PAGE2
T3 sequence: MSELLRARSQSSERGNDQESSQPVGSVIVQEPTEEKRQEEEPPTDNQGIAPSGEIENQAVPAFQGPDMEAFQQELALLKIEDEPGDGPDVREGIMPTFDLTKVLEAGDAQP

[3] = biological target: T4, keratin associated protein 12-3 (human, UniProt P60328 1-96)
T4 construct: on protein array; also called KRTAP12-3
T4 sequence: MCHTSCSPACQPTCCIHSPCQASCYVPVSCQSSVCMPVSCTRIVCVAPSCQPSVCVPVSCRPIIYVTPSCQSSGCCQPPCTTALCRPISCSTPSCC

[4] = biological target: T5, microtubule associated protein RP/EB family member 2, transcript variant 1 (human, UniProt Q15555 1-327)
T5 construct: on protein array; also called MAPRE2

[5] = biological target: T6, Jupiter microtubule associated homolog 2 (human, UniProt Q9H910 1-190)
T6 construct: on protein array; also called HN1L
T6 sequence: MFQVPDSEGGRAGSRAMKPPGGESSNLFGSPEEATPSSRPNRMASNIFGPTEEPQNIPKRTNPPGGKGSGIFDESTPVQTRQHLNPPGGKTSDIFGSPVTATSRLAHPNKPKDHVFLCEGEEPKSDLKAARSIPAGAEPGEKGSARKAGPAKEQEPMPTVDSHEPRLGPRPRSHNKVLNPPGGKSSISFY

BTB domain containing 8 = biological target: T7, BTB domain containing 8 (human, UniProt Q5XKL5 1-374, limits assumed)
T7 construct: on protein array; also called BTBD8

enolase 2 = biological target: T8, enolase 2 (human, UniProt P09104 2-434)
T8 construct: on protein array; also called ENO2

[6] = biological target: T9, interleukin 27 receptor subunit alpha (human, UniProt Q6UWB1 33-636)
T9 construct: on protein array; also called IL27RA
T9 sequence: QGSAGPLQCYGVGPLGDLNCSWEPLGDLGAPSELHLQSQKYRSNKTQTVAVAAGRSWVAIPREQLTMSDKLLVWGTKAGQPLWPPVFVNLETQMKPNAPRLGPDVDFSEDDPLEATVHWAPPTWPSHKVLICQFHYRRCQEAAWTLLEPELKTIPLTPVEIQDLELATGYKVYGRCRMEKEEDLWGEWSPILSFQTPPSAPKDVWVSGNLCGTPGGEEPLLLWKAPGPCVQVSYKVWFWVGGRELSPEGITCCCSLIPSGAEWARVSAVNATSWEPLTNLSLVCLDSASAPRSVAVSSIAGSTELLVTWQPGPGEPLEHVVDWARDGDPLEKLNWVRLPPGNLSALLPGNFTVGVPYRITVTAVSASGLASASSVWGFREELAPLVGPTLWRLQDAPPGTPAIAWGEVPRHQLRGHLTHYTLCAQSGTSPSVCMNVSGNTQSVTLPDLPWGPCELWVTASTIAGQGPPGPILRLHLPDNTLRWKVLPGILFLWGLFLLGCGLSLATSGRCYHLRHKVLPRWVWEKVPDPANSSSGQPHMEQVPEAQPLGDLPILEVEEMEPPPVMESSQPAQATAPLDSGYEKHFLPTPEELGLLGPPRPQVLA

[7] = biological target: T10, serpin family B member 6, transcript variant 2 (human, UniProt P35237 1-376)
T10 construct: on protein array; also called SERPINB6
T10 sequence: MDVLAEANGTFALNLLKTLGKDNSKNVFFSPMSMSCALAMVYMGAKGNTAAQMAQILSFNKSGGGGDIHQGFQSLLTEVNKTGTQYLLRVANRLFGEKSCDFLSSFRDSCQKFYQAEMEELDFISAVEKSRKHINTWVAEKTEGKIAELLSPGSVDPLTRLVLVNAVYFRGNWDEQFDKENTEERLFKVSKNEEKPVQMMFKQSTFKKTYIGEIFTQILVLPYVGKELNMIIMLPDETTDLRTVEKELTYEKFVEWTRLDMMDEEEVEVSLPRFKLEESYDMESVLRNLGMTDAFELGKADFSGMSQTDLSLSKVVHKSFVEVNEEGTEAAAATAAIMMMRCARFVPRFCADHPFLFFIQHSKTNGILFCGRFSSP

Deoxyhypusine synthase = biological target: T11, Deoxyhypusine synthase (human, UniProt P49366 1-369)
T11 construct: on protein array; also called DHPS
T11 sequence: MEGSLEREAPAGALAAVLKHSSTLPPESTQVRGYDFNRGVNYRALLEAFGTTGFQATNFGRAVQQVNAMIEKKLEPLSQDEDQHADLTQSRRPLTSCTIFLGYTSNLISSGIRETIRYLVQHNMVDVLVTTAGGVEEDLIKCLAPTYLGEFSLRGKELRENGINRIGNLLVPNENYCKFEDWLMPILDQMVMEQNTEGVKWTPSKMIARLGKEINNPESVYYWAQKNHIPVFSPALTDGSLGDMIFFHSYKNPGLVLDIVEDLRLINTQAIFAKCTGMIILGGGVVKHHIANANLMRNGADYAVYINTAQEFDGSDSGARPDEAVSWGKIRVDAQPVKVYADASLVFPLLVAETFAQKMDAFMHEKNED

[8] = biological target: T12, 5-hydroxytryptamine receptor 1E (human, UniProt P28566 1-365)
T12 construct: on protein array; also called HTR1E

[9] = biological target: T13, microfibril associated protein 3, transcript variant 3 (human, UniProt P55082 19-362)
T13 construct: on protein array; also called MFAP3
T13 sequence (P55082 19-362 limits assumed, change not shown): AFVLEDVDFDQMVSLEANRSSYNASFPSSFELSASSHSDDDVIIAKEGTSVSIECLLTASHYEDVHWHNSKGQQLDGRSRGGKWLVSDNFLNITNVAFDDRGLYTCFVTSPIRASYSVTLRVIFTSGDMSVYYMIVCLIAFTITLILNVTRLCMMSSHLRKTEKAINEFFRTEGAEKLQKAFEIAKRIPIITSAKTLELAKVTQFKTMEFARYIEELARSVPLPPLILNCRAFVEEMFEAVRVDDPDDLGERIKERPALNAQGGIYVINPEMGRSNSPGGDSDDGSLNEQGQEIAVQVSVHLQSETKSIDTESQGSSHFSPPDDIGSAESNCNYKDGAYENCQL

T7 sequence (Q5XKL5 other isoform, or with tags, fused parts or gaps limits assumed): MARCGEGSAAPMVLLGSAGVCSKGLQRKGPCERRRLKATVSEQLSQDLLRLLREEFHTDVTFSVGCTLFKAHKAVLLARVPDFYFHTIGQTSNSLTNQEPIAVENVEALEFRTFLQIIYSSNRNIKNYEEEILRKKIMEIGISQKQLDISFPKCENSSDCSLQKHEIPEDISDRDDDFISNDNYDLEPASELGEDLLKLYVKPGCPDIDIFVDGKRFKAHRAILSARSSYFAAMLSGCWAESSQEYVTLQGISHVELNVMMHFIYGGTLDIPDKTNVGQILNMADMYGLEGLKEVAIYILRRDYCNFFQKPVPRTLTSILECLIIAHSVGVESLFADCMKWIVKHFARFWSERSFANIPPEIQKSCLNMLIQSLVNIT
T5 sequence (Q15555 whole entry, change not shown): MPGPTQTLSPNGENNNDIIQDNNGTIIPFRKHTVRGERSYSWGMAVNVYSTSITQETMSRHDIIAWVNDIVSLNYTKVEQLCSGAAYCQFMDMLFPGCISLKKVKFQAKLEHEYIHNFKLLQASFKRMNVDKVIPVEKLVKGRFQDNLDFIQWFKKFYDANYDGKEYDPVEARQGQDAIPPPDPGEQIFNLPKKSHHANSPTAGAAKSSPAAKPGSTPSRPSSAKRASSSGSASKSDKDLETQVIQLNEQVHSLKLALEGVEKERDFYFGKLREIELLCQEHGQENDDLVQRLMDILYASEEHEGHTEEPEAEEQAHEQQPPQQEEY
T1 sequence (Q9C005 whole entry, one chain of several): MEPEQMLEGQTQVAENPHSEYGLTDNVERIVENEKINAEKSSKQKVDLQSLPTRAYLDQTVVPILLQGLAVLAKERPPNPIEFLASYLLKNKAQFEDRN
T12 sequence (P28566 whole entry): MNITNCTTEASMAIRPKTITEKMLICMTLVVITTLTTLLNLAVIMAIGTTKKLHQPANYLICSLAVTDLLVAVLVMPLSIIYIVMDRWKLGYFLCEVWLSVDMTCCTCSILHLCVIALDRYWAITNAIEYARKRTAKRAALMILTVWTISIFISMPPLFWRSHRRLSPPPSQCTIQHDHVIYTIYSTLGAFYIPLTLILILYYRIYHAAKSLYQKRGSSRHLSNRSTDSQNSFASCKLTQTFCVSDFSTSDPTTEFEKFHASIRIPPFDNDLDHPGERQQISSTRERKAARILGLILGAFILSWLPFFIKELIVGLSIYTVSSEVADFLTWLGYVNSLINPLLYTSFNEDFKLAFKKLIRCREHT
T8 sequence (P09104 2-434 limits assumed): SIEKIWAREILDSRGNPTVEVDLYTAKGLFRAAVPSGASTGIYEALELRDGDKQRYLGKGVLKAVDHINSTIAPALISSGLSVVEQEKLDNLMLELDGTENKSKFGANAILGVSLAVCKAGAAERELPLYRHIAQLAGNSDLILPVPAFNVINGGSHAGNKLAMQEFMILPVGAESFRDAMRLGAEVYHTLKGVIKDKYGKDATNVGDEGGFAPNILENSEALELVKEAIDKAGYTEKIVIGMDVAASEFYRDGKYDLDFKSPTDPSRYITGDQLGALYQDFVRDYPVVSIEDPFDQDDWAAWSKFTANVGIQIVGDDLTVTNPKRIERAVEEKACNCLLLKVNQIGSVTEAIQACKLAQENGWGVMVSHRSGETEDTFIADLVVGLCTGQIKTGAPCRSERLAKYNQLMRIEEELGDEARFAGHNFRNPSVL

- binding result [1]: binds
- binding result [2]: binds
B1: TMEL1041 (antibody, V domains shown)
VH: EVQLLESGGGLVQPGGSLRLSCAASGFTFRIYAMSWVRQAPGKGLEWVSAISYSGNTTYYADSVKGRFTISRDNSKNTLYLQINNLRAEDTAIYYCAIQEKRELQLRRELDNYWGQGTLVTVSS
VL: PYELTQPPSVSLSPGQTARITCSGDALPKKYAYWYQQKSGQAPVLVIYEDSKRPSGIPERFSGSSSGTTATLTISGAQVDDEGDYYCYSPDSSGNVWVFGGGTKLTVLG
notes: VH/VL tied via antigen in summary, not by name in this stretch

- binding result (PAGE family member 2): binds
- binding result [3]: binds
B2: TMEL1035 (antibody, V domains shown)
VH: QVQLVESGGGVVQPGRSLRLSCAASGFTFSSYAMHWVRQAPGKGLEWVAVISYDGSNKYYADSVKGRFTISRDNSKNTLYLQMNSLRAEDTAVYYCASPIAVAAPFAYWGQGTLVTVSS
VL: VSSELTQDPAVSVALGQTVRITCQGDSLRSYYASWYQQKPGQAPVLVIYGKNNRPSGIPDRFSGSSSGNTASLTITGAQAEDEADYYCNSRDSSGNLYVFGTGTKVTVLG
notes: as for B1

- binding result [4]: binds
B3: TMES1004 (antibody, V domains shown)
VH: QVQLVQSGAEVKKPGASVKISCKASGYTFTSHAIHWVRQAPGQTFEWLGWINPVNGVTKYSQTFQDRVTIVRDKSATTTYMDLSGLTFEDTAMYYCARVLDFYGSSVLDYWGQGTLVTVSS
VL: QSALTQPASVSGSPGQSITISCTGTSSDIGTYNLVSWYQQRPGKAPKLIIYDVIKRPSGISDRFSGSKSDNMASLTISGLQAEDEAHYYCCSYRSSTAPVVFGGGTKVTVL
notes: as for B1

- binding result [5]: binds
- binding result (BTB domain containing 8): binds
B4: TMES1002 (antibody, V domains shown)
VH: QVQVVESGGGLVKPGGSLRLSCAVSGLDFRDYYVNWIRQAPGKGLEWLSYITSPGGHTSYSDSVKGRFTISRDNAKNSVYLQMDSLTVEDTAVYFCAIKEGYGLSDWGQGTLVTVSS
VL: EIVLTQSPVTLSLSPGERATLSCRASQSVSSSYIAWYQQKPGQAPRLLIYGASTRATGIPDRFSGSGSGTDFTLTISRLEPEDCAVFYCQQYGSSHYTFGQGTKLEIKR
notes: as for B1

- binding result (enolase 2): binds
B5: TMEL1037 (antibody, V domains shown)
VH: PLQLQESGPGLVKPSETLSLTCTVSGGSISSSSYYWGWIRQSPGKGLEWMGSIYYSGSTYYNPSLKSRVTISVDTSKNQFSLNLSSVTAADTAVYYCARHDYRNYFDYWGQGTLVTVSS
VL: not shown
notes: as for B1

- binding result [6]: binds
B6: TOVA1002 (antibody, V domains shown)
VH: QVQLVESGGGVVQPGRSLRLSCAASGFTFSNFAMHWVRQAPGKGLEWVVVISSDGSNKNYADSVKGRFTISRDNSKNTLYLQMNSLRAEDTAVYYCARDLGVGSTTYWGQGTLVTVSS
VL: SYVLTQPPSVSVAPGQTARITCGGNNIGSKSVHWYQQKPGQAPVLVVYDDSDRPSGIPERFSGSNSGNTATLTISRVEAGDEADYYCQVWDGYSDPLVFGGGTKLTVLG
notes: as for B1

- binding result [7]: binds
B7: TMEL1040 (antibody, V domains shown)
VH: EVQLVQSGAEVKKPGESLKISCKGSGYSFTTYWIAWVRQMPGKGLEWMGIIYPADSDTRYSPSFQGQVTMSADQSINTAYLQWSSLKASDTAMYYCARRGREFDYWGQGTLLTVSS
VL: QSALTQPASVSGSPGQSITISCTGTSSDVGSYNLVSWYQQHPGKAPKLMIYEGSKRPSGVSNRFSGSKSGNTASLTISGLQAEDEADYYCCSYAGSSTPWVFGGGTKLTVL
notes: as for B1

- binding result (Deoxyhypusine synthase): binds
B8: TOVA1003 (antibody)
VH: GEQLLESGGGLVQPGGSLRLSCAASGFTFSHYAMTWVRQAPGKGLEWVSGVSGSGFTTYYADSVKGRFTISRDNAQNTLYLHMNSLRAEDTAIYYCVKDLEVSIGHNFDFWGQGTLVTVSSASTKGPSVFPLAPSSKSTSGGTAALGCLVKDYFPEPVTVSWNSGALTSGVHTFPAVLQSSGLYSLSSVVTVPSSSLGTQTYICNVNHKPSNTKVDKRV
VL: EVQMTQSPSSLSASVGDRVTITCRASQHIAGRLNWYQQKPGKAPKLLIHSASSVQREVPSRFGGSGFGTDFTLTIYSLQAEDFATYFCQQSYYTPPTFAGGTRVDLKRTVAAPSVFIFPPSDEQLKSGTASVVCLLNNFYPREAKVQWKVDNALQSGNSQESVTEQDSKDSTYSLSSTLTLSKADYEKHKVYACEVTHQGLSSPVTKSFNRGEC
notes: as for B1

- binding result [8]: binds
B9: TBLA1013 (antibody, V domains shown)
VH: EVQLLESGGGLVQPGGSLTLSCVGSRFTFSSYAMNWVRQSPGRGLEWVASISATTGSTYYTDSVEGRFTISRDNSRDTLYLQMNSLRADDTALYYCVRSFVGAVPAYPNFDFWGPGTLVTVSS
VL: PSGLTQPPSASGTPGQRVTMSCSGSSSNIGRNYVYWYQQLPGAAPKLLIYRDNQRPSGVPDRFSGSKSGTSASLAISGLRSEDEADYYCAAWDDNVSGPGFGAGTRLTVLG
notes: VH/VL only

- binding result [9]: binds
B10: TBRE1002 (antibody, V domains shown)
VH: QVQLVESGGGVVQPGGSLRLSCGASGFAFSSNGMHWVRQAPGKGLEWVAFIHYDGRNKHYTDSVKGRFAISVDDSKTTLYLQMSSLKTEDTAVYYCVKDSRVTGQSSGYIFDSWGQGTLVTVSS
VL: ETVMTQSPATLSVSPGDRATLSCRASQNVNFNLAWYQQKPGQAPRLLIYDASTRATGIPARFSGSASGTEFTLTINSLQSEDFAVYYCQQYNNWWTFGQGTKLEIKR
notes: VH/VL only
